The target in this assay is CCR5 (UniProt P51681). As to the kind of experiment: cell-based or functional assay.

Chain of wild-type RANTES (P13501 24-91): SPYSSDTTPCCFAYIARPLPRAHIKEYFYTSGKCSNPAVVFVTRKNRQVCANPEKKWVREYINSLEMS

In the case of “RANTES mutant pVU26 (Arg 44 to Glu) (from UniProt P13501 24-91) (ligand)”, the relative antiviral activity (RANTES ID50/mutant ID50), PBMC, HIV-1BaL (fold compared to wild-type RANTES) worked out at 3.16.
As to “RANTES mutant pVU15 (Ser 1 to Cys, Ser 5 to Cys) (from UniProt P13501 24-91) (ligand)”, the concentration giving the highest inhibition of wild-type RANTES activity (calcium mobilisation) came out at 500 ng/mL; the relative antiviral activity (ID90 RANTES/ID90 mutant), MDM, HIV-1BaL (fold compared to wild-type RANTES) turned out to be 4.5; the relative antiviral activity (ID90 RANTES/ID90 mutant), PBMC, HIV-1 6366 (fold compared to wild-type RANTES) was found to be 3.3; the relative antiviral activity (ID90 RANTES/ID90 mutant), PBMC, HIV-1BaL (fold compared to wild-type RANTES) worked out at 3.07.
For the substance “RANTES mutant pVU38 (Asp 6 to Arg) (from UniProt P13501 24-91) (ligand)”, the relative antiviral activity (ID90 RANTES/ID90 mutant), PBMC, HIV-1 6366 (fold compared to wild-type RANTES) was 0.13 and the relative antiviral activity (ID90 RANTES/ID90 mutant), PBMC, HIV-1BaL (fold compared to wild-type RANTES) turned out to be 0.14.
As for “RANTES mutant pVU5 (Ser 1 to Cys) (from UniProt P13501 24-91) (ligand)”, the relative antiviral activity (ID90 RANTES/ID90 mutant), MDM, HIV-1BaL (fold compared to wild-type RANTES) was 0.25; the relative antiviral activity (ID90 RANTES/ID90 mutant), PBMC, HIV-1 6366 (fold compared to wild-type RANTES) is 0.23; the relative antiviral activity (ID90 RANTES/ID90 mutant), PBMC, HIV-1BaL (fold compared to wild-type RANTES) is 0.24.
For the substance “RANTES mutant pVU22 (Tyr 14 to Phe) (from UniProt P13501 24-91) (ligand)”, the relative antiviral activity (ID90 RANTES/ID90 mutant), PBMC, HIV-1 6366 (fold compared to wild-type RANTES) turned out to be 2.5 and the relative antiviral activity (ID90 RANTES/ID90 mutant), PBMC, HIV-1BaL (fold compared to wild-type RANTES) turned out to be 10.
As to “RANTES mutant pVU43 (Lys 45 to Glu) (from UniProt P13501 24-91) (ligand)”, the relative antiviral activity (RANTES ID50/mutant ID50), PBMC, HIV-1BaL (fold compared to wild-type RANTES) was 1.44.
“wild-type RANTES (from UniProt P13501 24-91) (ligand)”: the ID90, inhibition of HIV-1BaL infection of PBMC (p24 antigen) is 0.096 µg/mL.
“RANTES mutant pVU14 (Tyr 3 to Ala) (from UniProt P13501 24-91) (ligand)”: the relative antiviral activity (ID90 RANTES/ID90 mutant), MDM, HIV-1BaL (fold compared to wild-type RANTES) amounted to 0.23; the relative antiviral activity (ID90 RANTES/ID90 mutant), PBMC, HIV-1 6366 (fold compared to wild-type RANTES) came out at 0.1; the relative antiviral activity (ID90 RANTES/ID90 mutant), PBMC, HIV-1BaL (fold compared to wild-type RANTES) turned out to be 0.22.
Regarding “RANTES mutant pVU24 (Arg 17 to Ala) (from UniProt P13501 24-91) (ligand)”, the relative antiviral activity (ID90 RANTES/ID90 mutant), PBMC, HIV-1 6366 (fold compared to wild-type RANTES) turned out to be 1.3 and the relative antiviral activity (ID90 RANTES/ID90 mutant), PBMC, HIV-1BaL (fold compared to wild-type RANTES) was 1.09.
Consider “RANTES mutant pVU17 (additional N-terminal Leucine) (from UniProt P13501 24-91) (ligand)”, for which the relative antiviral activity (ID90 RANTES/ID90 mutant), MDM, HIV-1BaL (fold compared to wild-type RANTES) turned out to be 11; the relative antiviral activity (ID90 RANTES/ID90 mutant), PBMC, HIV-1 6366 (fold compared to wild-type RANTES) is 1.9; the relative antiviral activity (ID90 RANTES/ID90 mutant), PBMC, HIV-1BaL (fold compared to wild-type RANTES) turned out to be 4.6.

The values are drawn from US7164000.
